Here are results for one molecule from patent US12539335B2, “Tricyclic polypeptide conjugated drug and use thereof” (CONJUSTAR (ZHUHAI) BIOLOGICS CO., LTD., priority 2021, dated 2026).

Common to all, as to format: in vitro ADME
Series [1] is described as follows: Metabolic stability in hepatocytes, humans. The settings on record: human, hepatocytes (cryopreserved, suspension), 0.5×10^6 cells/mL. As to the method:
Test Example 7: Metabolic Stability of the Compounds of the Present Invention in Hepatocytes from Mice, Rats, Cynomolgus Macaques, and Humans
To investigate the metabolic stability of the compounds of the present invention in hepatocytes from mice, rats, Cynomolgus macaques, and humans.
Incubations were performed in 96-well plates using an external extraction method. Several 96-well sample precipitation plates, designated T0, T15, T30, T60, T90, TO-MC, T90-MC, and blank matrix, were prepared, respectively. The recovery culture medium and incubation culture medium were removed in advance and placed in a 37° C. water bath for preheating. […]
At the end of the incubation at the corresponding time point, the incubation plates were removed, from which 25 μL of a compound mixture with the cells and a control compound mixture with the cells were removed and added to sample plates containing 125 μL of stop buffer, respectively. […] All samples were mixed uniformly and then analyzed by the LC-MS/MS method.
The concentration of the compound to be tested and the concentration of the control in the sample were semi-quantitatively determined by the liquid chromatography-tandem mass spectrometry (LC-MS/MS) method without a standard curve and quality control sample. […]

Series [2] can be described thus: Stability in plasma, SD rats. The settings on record: Sprague-Dawley (SD), rat, 37° C. As to the method:
(§1) Test Example 9: Stability Analysis of the Compounds of the Present Invention in Plasma from Different Species
(§2) To test the stability of the compounds of the present invention in plasma from SD rats, Cynomolgus macaques, and humans.
(§3) The corresponding incubation plates, including T0, T10, T30, T60, T120, and T240 incubation plates, were added with a 2 μL working solution of the compound to be tested (100 μM). Three parallel wells were prepared for each sample. Then, 98 μL of blank plasma from SD rats, Cynomolgus macaques, and humans was added to the corresponding incubation plates to which the working solution had been added. All samples were incubated in a 37° C. water bath. […] At the end of each incubation time point, the corresponding incubation plate was removed, added with stop buffer, precipitated, and centrifuged for 20 minutes. Then, 150 μL of the supernatant was analyzed by the LC-MS/MS method. The concentration of the compound to be tested in the sample was semi-quantitatively determined by the liquid chromatography-tandem mass spectrometry (LC-MS/MS) method.

Series [3] in a line: Stability in plasma, humans. As to conditions: human, 37° C. How it is done:
as §1, §2, §3

Each structure is given as a SMILES string. Counter-ions that a name gives are not always drawn. Starred links: 1 amine or outer side, 2 acyl side, 3 side chain; linkers in the order of their positions; H or OH if unused. Positions of bridges follow the written chain, without caps; N, C: chain ends. Non-standard residues stand in square brackets, D forms with d. Residues, ends and D or L forms follow the SMILES beside them. Chains are numbered I, II in the order given. *: point of attachment. TATA = O=C(CC[*:1])N1CN(C(=O)CC[*:2])CN(C(=O)CC[*:3])C1; Dolaproine = CO[C@@H]([C@@H]1CCCN1)[C@@H](C)C(=O)O; Dil = CC[C@H](C)[C@H](NC)[C@@H](CC(=O)O)OC; 1Nal = N[C@@H](Cc1cccc2ccccc12)C(=O)O; X2 = O=C(CCCC(=O)[*:2])NCCC(=O)[*:1]; PABC = O=C(OCc1ccc(N[*:1])cc1)[*:2]; X1 = C[C@@H](N*)[C@@H](O)c1ccccc1; Hyp = O=C(O)[C@@H]1C[C@@H](O)CN1; hArg = N=C(N)NCCCC[C@H](N)C(=O)O; Cit = NC(=O)NCCC[C@H](N)C(=O)O; Pen = CC(C)(S)[C@H](N)C(=O)O; NMeV = CN[C@H](C(=O)O)C(C)C; Sar = CNCC(=O)O Where only a bound is given, the exact number is not on record here.

By half-life is commonly meant how long it takes for the measured level to halve. The low end stands for fast loss, the high end for slow loss. In turn, `CC[C@H](C)[C@@H]([C@@H](CC(=O)N1CCC[C@H]1[C@H](OC)[C@@H](C)C(=O)N[C@H](C)[C@@H](O)c1ccccc1)OC)N(C)C(=O)[C@@H](NC(=O)[C@H](C(C)C)N(C)C(=O)OCc1ccc(NC(=O)[C@H](CCCNC(N)=O)NC(=O)[C@@H](NC(=O)CCCC(=O)NCCC(=O)N(C)CC(=O)N(C)CC(=O)N(C)CC(=O)N(C)CC(=O)N(C)CC(=O)N(C)CC(=O)N(C)CC(=O)N(C)CC(=O)N(C)CC(=O)N(C)CC(=O)N[C@H]2CCCCNC(=O)C[C@@H](C(=O)N[C@H]3CSCCC(=O)N4CN5CN(C4)C(=O)CCSC(C)(C)[C@H](NC(=O)[C@@H](CC(=O)O)NC(=O)[C@H](Cc4cccc6ccccc46)NC(=O)[C@@H]4CCCN4C3=O)C(=O)N[C@@H](CCSC)C(=O)N[C@@H](CCCCNC(=N)N)C(=O)N[C@@H](CC(=O)O)C(=O)N[C@@H](Cc3c[nH]c4ccccc34)C(=O)N[C@@H](CO)C(=O)N[C@@H]([C@@H](C)O)C(=O)N3CCC[C@H]3C(=O)N3C[C@H](O)C[C@H]3C(=O)N[C@@H](Cc3c[nH]c4ccccc34)C(=O)N[C@H](C(N)=O)CSCCC5=O)NC(=O)CN(C)C2=O)C(C)C)cc1)C(C)C` [Acetate salt of PDC_2] (I: [Sar][Sar][Sar][Sar][Sar][Sar][Sar][Sar][Sar][Sar]K[Sar]DCP[1Nal][dD][Pen]M[hArg]DWSTP[Hyp]WC-NH2 / II: V[Cit][PABC][NMeV]V[Dil][Dolaproine]-X1; lactam I:11-I:13; linker I:14-I:18-I:28 via TATA; linker I:N-II:N via X2) yielded a half-life at 1 μM in series [1] of over 3.61 h. Further, the CLint scaled at 1 μM in series [1] (read-out: CLint (liver)) was under 17.8 mL/min/kg. Moreover, the half-life at 2 μM in series [2] and in series [3] was over 9.63 h in each case.
